Experimental data as given in patent US8318206.

What was measured:
[1] = system: fluorenyl-9-methoxycarbonyl (Fmoc)-SSFYSGGGC-CONH2
[2] = system: T1, Fmoc-Gly-Phe-Cys-NH2 (peptide 1)
T1 sequence: GFC

Row | Substance | dispersion of the aggregate (percentage change in intensity against time) [1] | disassembly of nanoparticle aggregate [2]
1 | Prostate Specific Antigen (PSA) | Discrimination of PSA concentration is seen after 5 min | 
2 | trypsin |  | 8.5 nm gold particles functionalised with Fmoc-Gly-Phe-Cys-NH2 did not disassemble upon introduction of trypsin
